From publication PMC6298731, “Functional and structural similarity of human DNA primase [4Fe4S] cluster domain constructs” come the findings set out here.

Data set [1] concerns the target T1, p58C272-464 (DNA primase regulatory subunit C-terminal domain) (human, UniProt P49643 272-464).
T1 sequence: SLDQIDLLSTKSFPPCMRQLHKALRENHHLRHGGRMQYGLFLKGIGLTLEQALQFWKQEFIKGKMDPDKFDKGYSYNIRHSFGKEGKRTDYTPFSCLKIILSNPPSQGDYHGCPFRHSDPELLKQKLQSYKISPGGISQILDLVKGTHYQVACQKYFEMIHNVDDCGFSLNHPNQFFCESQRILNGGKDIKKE
As to the kind of experiment: fluorescence anisotropy; 20 mM MES pH 6.5, 50 mM NaCl, 2 mM DTT (plus 0.05% Tween for FI), 50 nM substrate, 25 C; 15 min incubation at room temperature. The settings on record: protein: recombinant; tags: 6xHis tag cleaved with H3C protease; label: 5'-6FAM on DNA template (S4 Dataset says FITC); 12 bp RNA-DNA hybrid; template 5' overhang 4 nt and 3' overhang 6 nt. (In general: Polarisation of emitted light reports the rotation of a fluorescent probe.)

Data set [2] concerns the target T2, p58C266-464 (DNA primase regulatory subunit C-terminal domain) (human, UniProt P49643 266-464).
T2 sequence: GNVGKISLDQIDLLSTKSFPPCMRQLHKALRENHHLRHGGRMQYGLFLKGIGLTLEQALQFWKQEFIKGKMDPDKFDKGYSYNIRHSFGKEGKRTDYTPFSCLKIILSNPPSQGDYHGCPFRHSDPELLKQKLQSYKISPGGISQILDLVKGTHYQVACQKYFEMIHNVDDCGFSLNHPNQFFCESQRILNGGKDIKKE
The data set is described as above. Particulars: protein: recombinant; tags: 6xHis tag cleaved with H3C protease; label: 5'-6FAM on DNA template (S4 Dataset says FITC); 12 bp RNA-DNA hybrid; template 5' overhang 4 nt and 3' overhang 6 nt.

Data set [3] deals with T1, p58C272-464 (DNA primase regulatory …). As to the kind of experiment: fluorescence intensity (Monolith MST instrument); 20 mM MES pH 6.5, 50 mM NaCl, 2 mM DTT (plus 0.05% Tween for FI), 50 nM substrate, 25 C; 15 min incubation at room temperature. The settings on record: protein: recombinant; tags: 6xHis tag cleaved with H3C protease; label: 5'-Cy5 on DNA template; 8 bp RNA-DNA hybrid; template 5' overhang 4 nt and 3' overhang 6 nt.

Data set [4] deals with T2, p58C266-464 (DNA primase regulatory …). The data set is described as above. Particulars: protein: recombinant; tags: 6xHis tag cleaved with H3C protease; label: 5'-Cy5 on DNA template; 8 bp RNA-DNA hybrid; template 5' overhang 4 nt and 3' overhang 6 nt.

B1: FA substrate: 12 nt RNA-primed 22 nt DNA template (DNA:RNA)
RNA: GGACCUCCAGGA
DNA: AAACTCCTGGAGGTCCAACATA
modifications: 5'-triphosphate on RNA primer (RNA printed with T as S5; written here with U)
As for B1, the Kd in data set [1] worked out at 3.6 ± 0.1 µM; in data set [2] it was 2.1 ± 0.1 µM.

B2: MST/FI substrate: 8 nt RNA-primed 18 nt DNA template (DNA:RNA)
RNA: GGCUCGGA
DNA: AAACTCCGAGCCAACATA
modifications: 5'-triphosphate on RNA primer
As for B2, the Kd in data set [3] turned out to be 2.7 ± 0.3 µM; in data set [4], 3.4 ± 0.5 µM.

For orientation: Kd means the concentration at which binding is half-saturated.
